Reference: paper PMC10797482, “The Interaction between Collagen 1 and High Mannose Type CD133 Up‐Regulates Glutamine Transporter SLC1A5 to Promote the Tumorigenesis of Glioblastoma Stem Cells” (Advanced Science, 2023)

Molecular target: T1, His-COL1A1(972-1206) (human, UniProt P02452 972-1206)
T1 construct: also called COL1 (in the in vitro pull-downs); source: HEK293F, transfected (PEI), purified from the supernatants (Nickel Beads)
Test: pull-down; GST pull-down: 10 µg purified GST fusion protein with GST-beads incubated with His-COL1A1(972-1206) protein 1 h at 4 °C; washed three times with RIPA (1% Triton X-100, 50 mM Tris pH 7.4, 150 mM NaCl, 2 mM EDTA); blot with anti-His antibody
Conditions: both partners purified

T1 sequence (P02452 972-1206): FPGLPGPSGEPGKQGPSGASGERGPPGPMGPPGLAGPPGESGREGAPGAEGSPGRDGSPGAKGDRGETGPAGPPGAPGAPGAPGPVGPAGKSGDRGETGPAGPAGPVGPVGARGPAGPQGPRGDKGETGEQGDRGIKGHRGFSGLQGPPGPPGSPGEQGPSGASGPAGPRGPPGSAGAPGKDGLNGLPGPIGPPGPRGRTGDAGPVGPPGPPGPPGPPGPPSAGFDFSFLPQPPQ

binding result	Binder
binds	GST-CD133(20-108) (domain or fragment, human, UniProt O43490 20-108, looked up, source: E. coli BL21(DE3), purified (Glutathione-Superflow Resin)) GGQPSSTDAPKAWNYELPATNYETQDSHKAGPIGILFELVHIFLYVVQPRDFPEDTLRKFLQKAYESKIDYDKPETVILGLKIVYYEAG
binds	TQDSHKAGPIGILFELVHIFLYVVQPRDFPEDTLRKFLQ (domain or fragment, human, UniProt O43490 43-81, looked up, source: E. coli BL21, purified (Glutathione-Superflow Resin)) [GST-CD133 N-terminal segment (amino acids 43–81)]
